In paper doi:10.1101/2022.02.05.479199:

Target: RPA-DBD-D-Cy3;Rtt105-Cy5 (C13S) C13S (Saccharomyces cerevisiae;Saccharomyces cerevisiae?) (UniProt P22336+P26754+P26755+P40063)
Assay: FRET titration

Sequence of RPA-DBD-D-Cy3;Rtt105-Cy5 (C13S) C13S (Saccharomyces cerevisiae;Saccharomyces cerevisiae?) (P22336 whole entry, chain 1 of 4): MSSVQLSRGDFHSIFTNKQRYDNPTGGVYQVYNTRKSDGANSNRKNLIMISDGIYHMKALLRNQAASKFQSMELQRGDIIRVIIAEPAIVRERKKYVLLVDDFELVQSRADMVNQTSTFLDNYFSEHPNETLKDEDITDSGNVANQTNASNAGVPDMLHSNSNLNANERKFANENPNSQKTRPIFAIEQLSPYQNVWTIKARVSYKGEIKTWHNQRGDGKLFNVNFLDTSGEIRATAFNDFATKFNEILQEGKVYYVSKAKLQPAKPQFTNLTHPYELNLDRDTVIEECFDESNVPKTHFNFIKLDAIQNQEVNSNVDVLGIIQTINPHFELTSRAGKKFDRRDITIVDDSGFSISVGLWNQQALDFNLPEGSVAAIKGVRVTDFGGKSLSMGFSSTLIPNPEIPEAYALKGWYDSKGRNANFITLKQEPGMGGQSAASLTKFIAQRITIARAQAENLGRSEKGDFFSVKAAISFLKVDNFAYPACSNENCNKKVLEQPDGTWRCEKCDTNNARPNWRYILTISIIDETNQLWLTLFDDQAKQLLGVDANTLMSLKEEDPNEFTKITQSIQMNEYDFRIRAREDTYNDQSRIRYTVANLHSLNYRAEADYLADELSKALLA
Sequence of RPA-DBD-D-Cy3;Rtt105-Cy5 (C13S) C13S (Saccharomyces cerevisiae;Saccharomyces cerevisiae?) (P26754 whole entry, chain 2 of 4): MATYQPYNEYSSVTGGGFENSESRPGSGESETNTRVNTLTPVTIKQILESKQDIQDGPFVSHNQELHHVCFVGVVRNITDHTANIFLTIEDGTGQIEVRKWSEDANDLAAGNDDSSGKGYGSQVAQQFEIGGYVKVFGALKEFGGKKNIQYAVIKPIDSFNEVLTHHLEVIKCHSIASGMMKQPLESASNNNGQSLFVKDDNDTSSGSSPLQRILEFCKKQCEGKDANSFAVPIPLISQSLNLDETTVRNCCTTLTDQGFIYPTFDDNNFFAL
Sequence of RPA-DBD-D-Cy3;Rtt105-Cy5 (C13S) C13S (Saccharomyces cerevisiae;Saccharomyces cerevisiae?) (P26755 whole entry, chain 3 of 4): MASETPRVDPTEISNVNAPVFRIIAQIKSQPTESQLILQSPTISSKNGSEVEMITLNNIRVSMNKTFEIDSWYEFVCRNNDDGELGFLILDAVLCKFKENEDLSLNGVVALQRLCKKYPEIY
Sequence of RPA-DBD-D-Cy3;Rtt105-Cy5 (C13S) C13S (Saccharomyces cerevisiae;Saccharomyces cerevisiae?) (P40063 whole entry C13S, chain 4 of 4): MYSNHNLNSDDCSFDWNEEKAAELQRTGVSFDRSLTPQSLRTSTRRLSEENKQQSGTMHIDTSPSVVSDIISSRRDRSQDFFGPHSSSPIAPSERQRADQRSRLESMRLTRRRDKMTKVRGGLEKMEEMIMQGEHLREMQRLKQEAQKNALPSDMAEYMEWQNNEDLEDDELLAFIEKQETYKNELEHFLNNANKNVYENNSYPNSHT

| Sequence | K half [nM] |
| --- | --- |
| TTTTTTTTTTTTTTTTTTTTTTTTTTTTTTTTTTT [(dT)35] | 130 |
| TTTTTTTTTTTTTTTTTTTTTTTTTTTTTTTTTTTTTTTTTTTTTTTTTTTTTTTTTTTTTTTTTTTTTT [(dT)70] | 42.8 |
